{"source": "paper PMC10397247", "assay_in_all_cases": "two-hybrid library CCNG1;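 note: natural log of median RNA to DNA barcode read ratio; higher means stronger binding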", "key": {"[1]": {"target": "T1, 4H454-bN", "T1 chain": "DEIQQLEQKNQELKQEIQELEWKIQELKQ"}, "[2]": {"target": "T2, 4H2729-bN", "T2 chain": "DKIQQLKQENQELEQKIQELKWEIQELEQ"}, "[3]": {"target": "T3, 4H1845-bN", "T3 chain": "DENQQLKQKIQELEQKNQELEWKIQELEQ"}, "[4]": {"target": "T4, 4H3843-bN", "T4 chain": "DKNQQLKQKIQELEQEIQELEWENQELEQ"}, "[5]": {"target": "T5, 4H3427-bN", "T5 chain": "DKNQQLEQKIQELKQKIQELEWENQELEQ"}, "[6]": {"target": "T6, 4H607-bN", "T6 chain": "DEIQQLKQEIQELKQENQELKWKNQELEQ"}, "[7]": {"target": "T7, 4H2610-bN", "T7 chain": "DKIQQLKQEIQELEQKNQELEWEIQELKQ"}, "[8]": {"target": "T8, 4H797-bN", "T8 chain": "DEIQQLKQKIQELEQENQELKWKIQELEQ"}, "[9]": {"target": "T9, 4H3606-bN", "T9 chain": "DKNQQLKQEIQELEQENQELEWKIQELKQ"}, "[10]": {"target": "T10, 4H3354-bN", "T10 chain": "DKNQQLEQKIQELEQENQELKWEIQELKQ"}, "[11]": {"target": "T11, 4H908-bN", "T11 chain": "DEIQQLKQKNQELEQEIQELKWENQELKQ"}, "[12]": {"target": "T12, 4H331-bN", "T12 chain": "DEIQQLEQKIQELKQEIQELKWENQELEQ"}, "[13]": {"target": "T13, 4H72-bN", "T13 chain": "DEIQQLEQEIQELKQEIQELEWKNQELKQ"}, "[14]": {"target": "T14, 4H2576-bN", "T14 chain": "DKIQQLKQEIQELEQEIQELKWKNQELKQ"}, "[15]": {"target": "T15, 4H3112-bN", "T15 chain": "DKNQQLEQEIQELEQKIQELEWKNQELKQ"}, "[16]": {"target": "T16, 4H2697-bN", "T16 chain": "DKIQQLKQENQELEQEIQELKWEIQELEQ"}, "[17]": {"target": "T17, 4H687-bN", "T17 chain": "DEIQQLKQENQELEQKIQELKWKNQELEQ"}, "[18]": {"target": "T18, 4H3855-bN", "T18 chain": "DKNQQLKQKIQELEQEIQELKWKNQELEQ"}, "[19]": {"target": "T19, 4H3189-bN", "T19 chain": "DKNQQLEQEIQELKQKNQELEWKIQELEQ"}, "[20]": {"target": "T20, 4H953-bN", "T20 chain": "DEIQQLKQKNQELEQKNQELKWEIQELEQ"}, "[21]": {"target": "T21, 4H370-bN", "T21 chain": "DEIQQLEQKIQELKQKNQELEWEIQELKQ"}, "[22]": {"target": "T22, 4H717-bN", "T22 chain": "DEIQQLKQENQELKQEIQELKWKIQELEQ"}, "[23]": {"target": "T23, 4H1828-bN", "T23 chain": "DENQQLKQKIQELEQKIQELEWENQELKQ"}, "[24]": {"target": "T24, 4H2618-bN", "T24 chain": "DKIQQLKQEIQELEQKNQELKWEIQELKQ"}, "[25]": {"target": "T25, 4H3782-bN", "T25 chain": "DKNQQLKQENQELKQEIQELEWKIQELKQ"}, "[26]": {"target": "T26, 4H338-bN", "T26 chain": "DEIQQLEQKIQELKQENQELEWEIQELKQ"}, "[27]": {"target": "T27, 4H2667-bN", "T27 chain": "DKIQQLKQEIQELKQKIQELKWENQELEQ"}, "[28]": {"target": "T28, 4H2442-bN", "T28 chain": "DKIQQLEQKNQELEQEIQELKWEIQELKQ"}, "[29]": {"target": "T29, 4H3185-bN", "T29 chain": "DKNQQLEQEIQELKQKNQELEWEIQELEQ"}, "[30]": {"target": "T30, 4H1446-bN", "T30 chain": "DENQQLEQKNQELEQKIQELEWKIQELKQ"}, "[31]": {"target": "T31, 4H568-bN", "T31 chain": "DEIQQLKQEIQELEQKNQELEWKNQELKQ"}, "[32]": {"target": "T32, 4H4001-bN", "T32 chain": "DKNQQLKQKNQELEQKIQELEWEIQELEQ"}, "[33]": {"target": "T33, 4H918-bN", "T33 chain": "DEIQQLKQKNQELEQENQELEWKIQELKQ"}, "[34]": {"target": "T34, 4H754-bN", "T34 chain": "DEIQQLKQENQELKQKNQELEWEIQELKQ"}, "[35]": {"target": "T35, 4H462-bN", "T35 chain": "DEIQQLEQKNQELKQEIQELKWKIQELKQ"}, "[36]": {"target": "T36, 4H967-bN", "T36 chain": "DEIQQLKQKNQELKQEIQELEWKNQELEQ"}, "[37]": {"target": "T37, 4H883-bN", "T37 chain": "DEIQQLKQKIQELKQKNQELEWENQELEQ"}}}
{"binder": "DENQQLEQKNQELEQKIQELEWKIQELKQ", "note": "[4H1446-bN]", "values": [{"measurement": "interaction score", "setting": "[1]", "value": 0.124}, {"measurement": "interaction score", "setting": "[2]", "value": 0.529}, {"measurement": "interaction score", "setting": "[3]", "value": -1.65}, {"measurement": "interaction score", "setting": "[4]", "value": 1.05}, {"measurement": "interaction score", "setting": "[5]", "value": 0.852}, {"measurement": "interaction score", "setting": "[6]", "value": 0.502}, {"measurement": "interaction score", "setting": "[7]", "value": 0.732}, {"measurement": "interaction score", "setting": "[8]", "value": -0.329}, {"measurement": "interaction score", "setting": "[9]", "value": -0.294}, {"measurement": "interaction score", "setting": "[10]", "value": -0.558}, {"measurement": "interaction score", "setting": "[11]", "value": -0.254}, {"measurement": "interaction score", "setting": "[12]", "value": 1.22}, {"measurement": "interaction score", "setting": "[13]", "value": 0.548}, {"measurement": "interaction score", "setting": "[14]", "value": 1.07}, {"measurement": "interaction score", "setting": "[15]", "value": -0.24}, {"measurement": "interaction score", "setting": "[16]", "value": -0.277}, {"measurement": "interaction score", "setting": "[17]", "value": -0.229}, {"measurement": "interaction score", "setting": "[18]", "value": 0.333}, {"measurement": "interaction score", "setting": "[19]", "value": 0.67}, {"measurement": "interaction score", "setting": "[20]", "value": -0.0145}, {"measurement": "interaction score", "setting": "[21]", "value": -0.536}, {"measurement": "interaction score", "setting": "[22]", "value": -0.982}, {"measurement": "interaction score", "setting": "[23]", "value": 0.29}, {"measurement": "interaction score", "setting": "[24]", "value": -0.442}, {"measurement": "interaction score", "setting": "[25]", "value": -0.169}, {"measurement": "interaction score", "setting": "[26]", "value": -0.426}, {"measurement": "interaction score", "setting": "[27]", "value": 0.641}, {"measurement": "interaction score", "setting": "[28]", "value": 0.215}, {"measurement": "interaction score", "setting": "[29]", "value": 0.1}, {"measurement": "interaction score", "setting": "[30]", "value": 0.223}, {"measurement": "interaction score", "setting": "[31]", "value": -0.0813}, {"measurement": "interaction score", "setting": "[32]", "value": 1.11}, {"measurement": "interaction score", "setting": "[33]", "value": 0.759}, {"measurement": "interaction score", "setting": "[34]", "value": -0.286}, {"measurement": "interaction score", "setting": "[35]", "value": -1.74}, {"measurement": "interaction score", "setting": "[36]", "value": -1.04}, {"measurement": "interaction score", "setting": "[37]", "value": -0.0261}]}
